Results: US20130171133A1 (IMPERIAL INNOVATIONS, published 2013)

Assays:
[1] = biological target: HER2 (full length, from SK-OV-3 derived cell lysates) (human, UniProt P04626 23-1255); assay: cell-based or functional assay
[2] = biological target: T1, EphA2 (from cell lysates) (human, UniProt P29317 24-976); assay: co-IP and reciprocal co-IP, FIG. 17A
T1 construct: whole, on cells; Tested by co-immunoprecipitation from cell lysates

[3] = biological target: T2, FGFR1 (full length, from cell lysates; endogenous or SK-OV-3 cells transiently transfected with FGFR1 cDNA) (human, UniProt P11362 22-822); assay: co-IP with OPCML Ab, immunoblot with anti-FGFR1 ECD Ab, FIG. 2A(ii)
T2 construct: whole, on cells; Tested from detergent cell lysates (co-IP, GST pull-down); also called fibroblast growth factor receptor 1
T2 sequence (P11362 22-822): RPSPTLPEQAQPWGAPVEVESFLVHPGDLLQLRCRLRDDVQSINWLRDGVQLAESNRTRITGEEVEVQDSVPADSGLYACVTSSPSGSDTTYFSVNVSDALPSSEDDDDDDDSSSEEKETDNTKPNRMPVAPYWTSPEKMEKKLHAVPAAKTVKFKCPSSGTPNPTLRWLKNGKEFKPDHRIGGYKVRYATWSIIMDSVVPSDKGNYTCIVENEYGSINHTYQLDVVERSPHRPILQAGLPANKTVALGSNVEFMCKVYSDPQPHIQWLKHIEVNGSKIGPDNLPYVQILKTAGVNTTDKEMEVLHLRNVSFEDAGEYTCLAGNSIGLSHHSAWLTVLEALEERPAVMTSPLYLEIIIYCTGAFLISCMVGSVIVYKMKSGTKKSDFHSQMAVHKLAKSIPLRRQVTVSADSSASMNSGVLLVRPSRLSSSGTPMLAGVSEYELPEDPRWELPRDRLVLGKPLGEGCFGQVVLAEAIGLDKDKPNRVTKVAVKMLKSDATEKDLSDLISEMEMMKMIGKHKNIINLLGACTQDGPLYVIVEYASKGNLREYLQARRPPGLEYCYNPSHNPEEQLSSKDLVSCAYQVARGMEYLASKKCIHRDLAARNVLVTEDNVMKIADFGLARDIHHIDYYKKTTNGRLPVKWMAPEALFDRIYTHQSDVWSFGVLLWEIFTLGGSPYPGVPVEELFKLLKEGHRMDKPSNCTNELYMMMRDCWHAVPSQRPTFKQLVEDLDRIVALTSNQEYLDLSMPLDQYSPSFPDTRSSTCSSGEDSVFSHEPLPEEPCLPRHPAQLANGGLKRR
Procedure: Cell layers were washed in PBS and incubated for 30 minutes in lysis buffer (1% TritonX-100, 10 mM Tris pH8.0, 150 mM NaCl, 2.5 mM MgCl₂, 5 mM EGTA, 1 mM Na₃VO₄, 50 mM NaF and […] (Roche). Cell Lysates were then cleared by centrifugation at 13,000 rpm for 20 minutes at 4° C. and aliquots containing equal amounts of protein were incubated with the appropriate antibody before addition of secondary antibody conjugated to sepharose resin. Beads were then washed 3× with lysis buffer and eluted by heating for 5 minutes in […] of SDS sample buffer.

B1: OPCML (opioid binding protein cell adhesion molecule), human, expressed in cells (stably transfected SK-OV-3 lines BKS2.1 and SKOBS-3.5) (other)
chain: GVPVRSGDATFPKAMDNVTVRQGESATLRCTIDDRVTRVAWLNRSTILYAGNDKWSIDPRVIILVNTPTQYSIMIQNVDVYDEGPYTCSVQTDNHPKTSRVHLIVQVPPQIMNISSDITVNEGSSVTLLCLAIGRPEPTVTWRHLSVKEGQGFVSEDEYLEISDIKRDQSGEYECSALNDVAAPDVRKVKITVNYPPYISKAKNTGVSVGQKGILSCEASAVPMAEFQWFKEETRLATGLDGMRIENKGRMSTLTFFNVSEKDYGNYTCVATNKLGNTNASITLYGPGAVIDGVN
modifications: GPI anchor at N322; N-linked glycosylation
notes: Full OPCML cDNA in pcDNA3.1zeo, expressed in SK-OV-3 derived lines; immunoprecipitated from Triton X-100 cell lysates; also called OBCAM; OPCML polypeptide
[1]
  fold decrease in effective concentration of lapatinib required to abolish the EGF induced phospho-ERK signal, BKS2.1 against SKOBS-V1.2: 10 fold
[2]
  binding result: binds
[3]
  binding result: binds
